This assay addresses trypsin-processed Vip3Cb1 toxin (Paenibacillus sp. strain DSC004343). Kind of assay: cryo-EM structure.

The text below walks through data of PMC12285222.

By stoichiometry N is commonly meant the number of molecules, sites or subunits per partner or assembly.

Substance “trypsin-processed Vip3Cb1 toxin (complex)” gave a stoichiometry N of 4.
